EC50 data for 1 molecule are collected here from patent US20260373262 (published 2026).

Some results are limits rather than exact numbers.

For this test, the target named is T1, EPHB6 (human, UniProt O15197).
T1 chain: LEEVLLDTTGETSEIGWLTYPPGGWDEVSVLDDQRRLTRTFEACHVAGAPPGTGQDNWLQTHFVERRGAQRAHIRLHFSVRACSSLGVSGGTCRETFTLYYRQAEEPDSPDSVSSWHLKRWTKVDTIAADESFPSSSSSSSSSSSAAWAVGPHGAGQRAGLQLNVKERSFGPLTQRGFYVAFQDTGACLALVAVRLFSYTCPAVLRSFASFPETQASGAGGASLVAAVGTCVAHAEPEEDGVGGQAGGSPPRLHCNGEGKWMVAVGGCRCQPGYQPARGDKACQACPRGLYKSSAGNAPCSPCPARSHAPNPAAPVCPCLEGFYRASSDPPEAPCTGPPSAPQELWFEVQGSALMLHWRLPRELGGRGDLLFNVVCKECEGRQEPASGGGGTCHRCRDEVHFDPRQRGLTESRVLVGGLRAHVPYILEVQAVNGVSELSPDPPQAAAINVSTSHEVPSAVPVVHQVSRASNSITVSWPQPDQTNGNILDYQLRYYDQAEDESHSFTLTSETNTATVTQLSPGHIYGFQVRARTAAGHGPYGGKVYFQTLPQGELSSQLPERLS
Put plainly: FACS.

B1: hLFTT-1 VH4/VL5 (antibody, V domains shown)
VH: QIQLVQSGSELKKPGASVKVSCKASGYTFTTYGMSWVRQAPGQGLKWMGWIYTYSGVPTYADDLTGRFVFSLDTSVSTAYLQISSLKAEDTATYYCARVRDGYYRYAMDYWGRGTLVTVSS
VL: DIQMTQSPSSLSVSVGDRVTITCKASQDINRYIAWYQQQPGKAPKLLIHFTSTLQSGVPSRFSGSGSGTDFTFTISSLQPEDIATYYCLQYDDLRTFGQGTKLEIK
The EC50 is the concentration needed to bring the measured effect to its halfway point. As to B1, the EC50 is above 300 mg/L.
